Laboratory results as given in article PMC6760441, “Structural insights into stressosome assembly” (IUCrJ, 2019).
Positions count from the first letter of the chain named. In names and notes the source's numbering stands.

B1: RsbS (Bacillus subtilis), full length, residues 1-121, tag removed (natural protein, Bacillus subtilis strain 168, UniProt P42410 1-121, looked up)
chain: MRHPKIPILKLYNCLLVSIQWELDDQTALTFQEDLLNKIYETGANGVVIDLTSVDMIDSFIAKVLGDVITMSKLMGAKVVLTGIQPAVAVTLIELGIALEEIETALDLEQGLETLKRELGE
modifications: phosphoserine at 59 (seen in the crystal structure and by peptide mass fingerprinting; likely phosphorylated during expression in E. coli)
notes: RsbS, Bacillus subtilis strain 168 (ATCC 23857), full length, residues 1-121; only a STAS domain; Dimer in solution by SEC-MALS; 60 monomers form an icosahedron in the crystal; The model holds residues 4-119 (chain A) or 5-119 (other chains); A selenomethionine-labelled form was used for phasing; also called native RsbS; Bs RsbS; source: E. coli BL21 Star (DE3), purified (IMAC, TEV cleavage, …)
B2: RsbS S59A mutant (natural protein, Bacillus subtilis)
chain: B1 chain with S59A
notes: RsbS, Bacillus subtilis, with S59A, which restricts phosphorylation; the construct is not described
B3: RsbRA (Bacillus subtilis), full length, residues 1-274, native (pET-22b), of the RsbRA-RsbS complex (natural protein, Bacillus subtilis strain 168, UniProt P42409 1-274, looked up)
chain: MMSNQTVYQFIAENQNELLQLWTDTLKELSEQESYQLTDQVYENISKEYIDILLLSVKDENAAESQISELALRAVQIGLSMKFLATALAEFWKRLYTKMNDKRLPDQESTELIWQIDRFFSPINTEIFNQYSISWEKTVSLQKIALQELSAPLIPVFENITVMPLVGTIDTERAKRIMENLLNGVVKHRSQVVLIDITGVPVVDTMVAHHIIQASEAVRLVGAKCLLAGIRPEIAQTIVNLGIDLSQVITKNTLQKGIQTALEMTDRKIVSLGE
notes: RsbRA, Bacillus subtilis strain 168 (ATCC 23857), full length, residues 1-274; N-terminal nonheme globin domain and C-terminal STAS domain; also called native RsbRA; source: E. coli BL21 Star (DE3), co-purified with 6xHis-thioredoxin-RsbS (IMAC, TEV cleavage, SEC)

Columns and labels:
[1] = target: the molecule itself; test: SEC-MALS; 200 ul of 1 mg/ml RsbS on a Superdex 200 analytical column; miniDAWN TREOS II MALS and Optilab rEX detectors
[2] = target: B3; test: cryo-EM structure; RsbRA-RsbS complex at 0.5 mg/ml in 20 mM HEPES pH 7.5, 50 mM NaCl, 0.2 mM TCEP, 5% glycerol; single-particle reconstruction with C1, D2 or I restraints; settings: both partners purified
[3] = target: the molecule itself; test: crystal structure; RsbS 10 mg/ml; micro-batch at 20 C; 35% MPD, 100 mM MES/sodium hydroxide pH 6.0, 200 mM lithium sulfate; space group I23, five monomers in the asymmetric unit
[4] = target: the molecule itself; test: cryo-EM structure; RsbRA-RsbS complex at 0.5 mg/ml in 20 mM HEPES pH 7.5, 50 mM NaCl, 0.2 mM TCEP, 5% glycerol; single-particle reconstruction with C1, D2 or I restraints

binding result [2]	Binder	stoichiometry N [1]	stoichiometry N [3]	binding result [4]
binds	B1	2	60	
	B2	2		
	B3			binds
